The target in the experiment is protein kinase B (PKB). As to the kind of experiment: cell-based or functional assay.

Numbered stars: 1 amine (or outer) side, 2 acyl side, 3 side chain; on linkers, the order of the positions; unused ones are H or OH. Square brackets hold non-standard residues; d marks the D form. Ends that are not written are not given here. * marks the point of attachment. Cholesteryloxycarbonyl = CC(C)CCC[C@@H](C)[C@H]1CC[C@H]2[C@@H]3CC=C4C[C@@H](OC(=O)*)CC[C@]4(C)[C@H]3CC[C@]12C; Ser(Me) = COC[C@H](N[*:1])C(=O)[*:2]; hLeu = CC(C)CC[C@H](N)C(=O)O; Nva = CCC[C@H](N)C(=O)O; Dap = NC[C@H](N)C(=O)O; GABA = NCCCC(=O)O; βAla = NCCC(=O)O

B1: PTR 6294 (peptide)
peptide: Cholesteryloxycarbonyl-GRPR[Nva]Y[Dap][hLeu]-NH2
SMILES: CCC[C@H](NC(=O)[C@H](CCCNC(=N)N)NC(=O)[C@@H]1CCCN1C(=O)[C@H](CCCNC(=N)N)NC(=O)CNC(=O)O[C@H]1CC[C@@]2(C)C(=CC[C@H]3[C@@H]4CC[C@H]([C@H](C)CCCC(C)C)[C@@]4(C)CC[C@@H]32)C1)C(=O)N[C@@H](Cc1ccc(O)cc1)C(=O)N[C@@H](CN)C(=O)N[C@@H](CCC(C)C)C(N)=O
Turning to B1, the “IC50, in vitro kinase assay PKB” value was 1000 nM.

B2: PTR 6296 (peptide)
peptide: Cholesteryloxycarbonyl-[βAla]RPR[Nva]Y[Dap][hLeu]-NH2
SMILES: CCC[C@H](NC(=O)[C@H](CCCNC(=N)N)NC(=O)[C@@H]1CCCN1C(=O)[C@H](CCCNC(=N)N)NC(=O)CCNC(=O)O[C@H]1CC[C@@]2(C)C(=CC[C@H]3[C@@H]4CC[C@H]([C@H](C)CCCC(C)C)[C@@]4(C)CC[C@@H]32)C1)C(=O)N[C@@H](Cc1ccc(O)cc1)C(=O)N[C@@H](CN)C(=O)N[C@@H](CCC(C)C)C(N)=O
Turning to B2, the “IC50, in vitro kinase assay PKB” value amounted to 2000 nM.

B3: PTR 6308 (peptide)
peptide: Cholesteryloxycarbonyl-[βAla]RPR[Nva]Y[Ser(Me)][hLeu]-NH2
SMILES: CCC[C@H](NC(=O)[C@H](CCCNC(=N)N)NC(=O)[C@@H]1CCCN1C(=O)[C@H](CCCNC(=N)N)NC(=O)CCNC(=O)O[C@H]1CC[C@@]2(C)C(=CC[C@H]3[C@@H]4CC[C@H]([C@H](C)CCCC(C)C)[C@@]4(C)CC[C@@H]32)C1)C(=O)N[C@@H](Cc1ccc(O)cc1)C(=O)N[C@@H](COC)C(=O)N[C@@H](CCC(C)C)C(N)=O
Take B3: the “IC50, in vitro kinase assay PKB” value is 500 nM.

B4: PTR 6318 (peptide)
peptide: Cholesteryloxycarbonyl-[dK][dK]RPR[Nva]Y[Dap][hLeu]-NH2
SMILES: CCC[C@H](NC(=O)[C@H](CCCNC(=N)N)NC(=O)[C@@H]1CCCN1C(=O)[C@H](CCCNC(=N)N)NC(=O)[C@@H](CCCCN)NC(=O)[C@@H](CCCCN)NC(=O)O[C@H]1CC[C@@]2(C)C(=CC[C@H]3[C@@H]4CC[C@H]([C@H](C)CCCC(C)C)[C@@]4(C)CC[C@@H]32)C1)C(=O)N[C@@H](Cc1ccc(O)cc1)C(=O)N[C@@H](CN)C(=O)N[C@@H](CCC(C)C)C(N)=O
In the case of B4, the “IC50, in vitro kinase assay PKB” value was 200 nM.

B5: PTR 6312 (peptide)
peptide: [dK][dK][dK][dK][dK][dK][dK][dK]RPR[Nva]Y[Dap][hLeu]K(Cholesteryloxycarbonyl)-NH2
modifications: N-terminus assumed
SMILES: CCC[C@H](NC(=O)[C@H](CCCNC(=N)N)NC(=O)[C@@H]1CCCN1C(=O)[C@H](CCCNC(=N)N)NC(=O)[C@@H](CCCCN)NC(=O)[C@@H](CCCCN)NC(=O)[C@@H](CCCCN)NC(=O)[C@@H](CCCCN)NC(=O)[C@@H](CCCCN)NC(=O)[C@@H](CCCCN)NC(=O)[C@@H](CCCCN)NC(=O)[C@H](N)CCCCN)C(=O)N[C@@H](Cc1ccc(O)cc1)C(=O)N[C@@H](CN)C(=O)N[C@@H](CCC(C)C)C(=O)N[C@@H](CCCCNC(=O)O[C@H]1CC[C@@]2(C)C(=CC[C@H]3[C@@H]4CC[C@H]([C@H](C)CCCC(C)C)[C@@]4(C)CC[C@@H]32)C1)C(N)=O
With B5, the “IC50, in vitro kinase assay PKB” value was 100 nM.

B6: PTR 6322 (peptide)
peptide: Cholesteryloxycarbonyl-[dK][dK][dK][dK]RPR[Nva]Y[Dap][hLeu]-NH2
SMILES: CCC[C@H](NC(=O)[C@H](CCCNC(=N)N)NC(=O)[C@@H]1CCCN1C(=O)[C@H](CCCNC(=N)N)NC(=O)[C@@H](CCCCN)NC(=O)[C@@H](CCCCN)NC(=O)[C@@H](CCCCN)NC(=O)[C@@H](CCCCN)NC(=O)O[C@H]1CC[C@@]2(C)C(=CC[C@H]3[C@@H]4CC[C@H]([C@H](C)CCCC(C)C)[C@@]4(C)CC[C@@H]32)C1)C(=O)N[C@@H](Cc1ccc(O)cc1)C(=O)N[C@@H](CN)C(=O)N[C@@H](CCC(C)C)C(N)=O
Consider B6, for which the “IC50, in vitro kinase assay PKB” value came to 100 nM.

B7: PTR 6298 (peptide)
peptide: Cholesteryloxycarbonyl-[GABA]RPR[Nva]Y[Dap][hLeu]-NH2
SMILES: CCC[C@H](NC(=O)[C@H](CCCNC(=N)N)NC(=O)[C@@H]1CCCN1C(=O)[C@H](CCCNC(=N)N)NC(=O)CCCNC(=O)O[C@H]1CC[C@@]2(C)C(=CC[C@H]3[C@@H]4CC[C@H]([C@H](C)CCCC(C)C)[C@@]4(C)CC[C@@H]32)C1)C(=O)N[C@@H](Cc1ccc(O)cc1)C(=O)N[C@@H](CN)C(=O)N[C@@H](CCC(C)C)C(N)=O
Consider B7, for which the “IC50, in vitro kinase assay PKB” value amounted to 2000 nM.

B8: PTR 6962 (peptide)
peptide: Cholesteryloxycarbonyl-[dK][dK][dK][dK][dK][dK][dK][dK]RPR[Nva]Y[Dap][hLeu]-NH2
SMILES: CCC[C@H](NC(=O)[C@H](CCCNC(=N)N)NC(=O)[C@@H]1CCCN1C(=O)[C@H](CCCNC(=N)N)NC(=O)[C@@H](CCCCN)NC(=O)[C@@H](CCCCN)NC(=O)[C@@H](CCCCN)NC(=O)[C@@H](CCCCN)NC(=O)[C@@H](CCCCN)NC(=O)[C@@H](CCCCN)NC(=O)[C@@H](CCCCN)NC(=O)[C@@H](CCCCN)NC(=O)O[C@H]1CC[C@@]2(C)C(=CC[C@H]3[C@@H]4CC[C@H]([C@H](C)CCCC(C)C)[C@@]4(C)CC[C@@H]32)C1)C(=O)N[C@@H](Cc1ccc(O)cc1)C(=O)N[C@@H](CN)C(=O)N[C@@H](CCC(C)C)C(N)=O
Take B8: the “IC50, in vitro kinase assay PKB” value worked out at 100 nM.

B9: PTR 6306 (peptide)
peptide: Cholesteryloxycarbonyl-GRPR[Nva]Y[Ser(Me)][hLeu]-NH2
SMILES: CCC[C@H](NC(=O)[C@H](CCCNC(=N)N)NC(=O)[C@@H]1CCCN1C(=O)[C@H](CCCNC(=N)N)NC(=O)CNC(=O)O[C@H]1CC[C@@]2(C)C(=CC[C@H]3[C@@H]4CC[C@H]([C@H](C)CCCC(C)C)[C@@]4(C)CC[C@@H]32)C1)C(=O)N[C@@H](Cc1ccc(O)cc1)C(=O)N[C@@H](COC)C(=O)N[C@@H](CCC(C)C)C(N)=O
For B9, the “IC50, in vitro kinase assay PKB” value was found to be 500 nM.

B10: PTR 6304 (peptide)
peptide: Cholesteryloxycarbonyl-RPR[Nva]Y[Ser(Me)][hLeu]-NH2
SMILES: CCC[C@H](NC(=O)[C@H](CCCNC(=N)N)NC(=O)[C@@H]1CCCN1C(=O)[C@H](CCCNC(=N)N)NC(=O)O[C@H]1CC[C@@]2(C)C(=CC[C@H]3[C@@H]4CC[C@H]([C@H](C)CCCC(C)C)[C@@]4(C)CC[C@@H]32)C1)C(=O)N[C@@H](Cc1ccc(O)cc1)C(=O)N[C@@H](COC)C(=O)N[C@@H](CCC(C)C)C(N)=O
Take B10: the “IC50, in vitro kinase assay PKB” value was determined as 500 nM.

B11: PTR 6320 (peptide)
peptide: Cholesteryloxycarbonyl-[dK][dK][dK]RPR[Nva]Y[Dap][hLeu]-NH2
SMILES: CCC[C@H](NC(=O)[C@H](CCCNC(=N)N)NC(=O)[C@@H]1CCCN1C(=O)[C@H](CCCNC(=N)N)NC(=O)[C@@H](CCCCN)NC(=O)[C@@H](CCCCN)NC(=O)[C@@H](CCCCN)NC(=O)O[C@H]1CC[C@@]2(C)C(=CC[C@H]3[C@@H]4CC[C@H]([C@H](C)CCCC(C)C)[C@@]4(C)CC[C@@H]32)C1)C(=O)N[C@@H](Cc1ccc(O)cc1)C(=O)N[C@@H](CN)C(=O)N[C@@H](CCC(C)C)C(N)=O
As for B11, the “IC50, in vitro kinase assay PKB” value was determined as 200 nM.

The record behind these values is patent US20070078092A1 (CUREGENICS, published 2007).
